The Human Domainome abundance scans (Beltran et al. 2025)
± gives the uncertainty stated by the source.

B1: Ubiquitin-protein ligase residues 30 to 86; numbered along this chain, Q05086 (parent)
chain: KHLIERYYHQLTEGCGNEACTNEFCASCPTFLRMDNNAAAIKALELYKINAKLCDPH

Variants of: B1
Assay: abundance fitness (aPCA) (normalised: wild type 0, dead -1); higher = more abundant; growth selection in yeast, the domain comes from the species named
Conditions: Homo sapiens

Abundance fitness: each site, then its substitutions
M34: G -0.117 ± 0.084, E -0.053 ± 0.1, P -0.042 ± 0.12, F -0.061 ± 0.14, H -0.095 ± 0.13, N -0.279 ± 0.27, I 0.054 ± 0.15, A -0.029 ± 0.072, L -0.002 ± 0.069, Q -0.074 ± 0.11, T -0.129 ± 0.096, S -0.042 ± 0.08, Y -0.035 ± 0.13, V -0.023 ± 0.074, K -0.23 ± 0.11, R -0.102 ± 0.07, W -0.183 ± 0.083
P29: H -0.036 ± 0.29, Y -0.191 ± 0.22, L -0.149 ± 0.11, E 0.03 ± 0.17, F -0.195 ± 0.16, S -0.09 ± 0.1, N -0.304 ± 0.3, I -0.122 ± 0.15, K -0.014 ± 0.14, R -0.061 ± 0.089, D -0.252 ± 0.2, A -0.118 ± 0.11, W -0.557 ± 0.2, G -0.088 ± 0.11, Q -0.103 ± 0.17, V -0.156 ± 0.09
E23: L -0.106 ± 0.065, T -0.022 ± 0.081, G -0.045 ± 0.048, D -0.062 ± 0.07, F -0.084 ± 0.11, C -0.082 ± 0.093, W -0.134 ± 0.072, A -0.077 ± 0.058, H -0.09 ± 0.1, M -0.021 ± 0.079, Q -0.019 ± 0.087, K -0.054 ± 0.078, S -0.001 ± 0.064, R -0.045 ± 0.055, P -0.105 ± 0.087, Y -0.102 ± 0.097
T30: G 0.025 ± 0.063, K 0.012 ± 0.096, P -0.097 ± 0.11, N -0.052 ± 0.13, Y -0.216 ± 0.13, D -0.071 ± 0.12, V -0.083 ± 0.066, R 0.044 ± 0.074, L -0.083 ± 0.075, W -0.006 ± 0.12, S 0.016 ± 0.081, Q -0.048 ± 0.11, A 0.018 ± 0.074, M -0.153 ± 0.093, C -0.022 ± 0.11, E -0.055 ± 0.089, I -0.042 ± 0.059
R33: A -0.099 ± 0.087, Y -0.19 ± 0.14, E -0.011 ± 0.11, V -0.013 ± 0.076, F -0.415 ± 0.23, C -0.152 ± 0.11, S -0.041 ± 0.082, N -0.109 ± 0.17, H -0.109 ± 0.17, M -0.145 ± 0.12, G 0.014 ± 0.06, W -0.294 ± 0.1, P -0.017 ± 0.13, I -0.1 ± 0.15, D -0.245 ± 0.13, L -0.148 ± 0.1, T -0.025 ± 0.12, K 0.033 ± 0.16
K42: Q -0.085 ± 0.077, I -0.498 ± 0.13, M -0.269 ± 0.086, P -0.735 ± 0.14, F -0.408 ± 0.21, E -0.109 ± 0.073, N -0.198 ± 0.11, R -0.023 ± 0.052, S -0.178 ± 0.069, V -0.392 ± 0.059, C -0.282 ± 0.096, G -0.343 ± 0.052, L -0.211 ± 0.066, T -0.157 ± 0.08, H -0.109 ± 0.14, A -0.184 ± 0.068
N36: T -0.027 ± 0.11, F -0.046 ± 0.11, E 0.007 ± 0.095, W -0.239 ± 0.098, G -0.036 ± 0.059, I -0.11 ± 0.13, Y -0.308 ± 0.13, V -0.03 ± 0.076, Q -0.005 ± 0.18, L -0.005 ± 0.081, K 0.013 ± 0.13, A -0.042 ± 0.093, R 0.055 ± 0.067, M -0.181 ± 0.1, C -0.019 ± 0.1, H -0.152 ± 0.2, S 0.044 ± 0.075
I41: S 0.035 ± 0.052, P -0.069 ± 0.068, C -0.028 ± 0.062, D 0.024 ± 0.087, V 0.01 ± 0.057, T -0.013 ± 0.063, Q 0.075 ± 0.076, Y -0.123 ± 0.087, G 0.001 ± 0.052, K 0.08 ± 0.089, E 0.029 ± 0.067, R 0 ± 0.047, M -0.053 ± 0.076, W -0.239 ± 0.063, L -0.072 ± 0.055, H 0.064 ± 0.084, A 0.012 ± 0.059
D35: E -0.026 ± 0.079, S -0.022 ± 0.07, A -0.067 ± 0.074, G -0.039 ± 0.061, W -0.308 ± 0.083, V -0.187 ± 0.054, K -0.199 ± 0.13, T -0.112 ± 0.081, Q -0.084 ± 0.13, I -0.177 ± 0.1, H -0.213 ± 0.12, C -0.133 ± 0.087, Y -0.333 ± 0.12, L -0.091 ± 0.07, F -0.265 ± 0.17, M -0.058 ± 0.1, N -0.094 ± 0.094, R -0.095 ± 0.071, P -0.135 ± 0.1
N37: H -0.075 ± 0.11, P -0.107 ± 0.096, K -0.107 ± 0.092, Q -0.016 ± 0.093, R -0.086 ± 0.065, S -0.072 ± 0.069, F -0.542 ± 0.16, C -0.17 ± 0.089, T -0.015 ± 0.09, M -0.186 ± 0.14, W -0.454 ± 0.11, D 0.044 ± 0.096, A 0.018 ± 0.082
F31: I -0.169 ± 0.17
